Laboratory results taken from article PMC10785082 (ACS Omega, 2023).
Values belong to the molecule of their own block, whether it stands above or below them.

Assays:
HDAC6 ZnF-UBD = target: T1, HDAC6 ZnF-UBD (Homo sapiens, UniProt Q9UBN7); experiment: SPR binding to HDAC6 ZnF-UBD
T1 sequence (Q9UBN7 1109-1215): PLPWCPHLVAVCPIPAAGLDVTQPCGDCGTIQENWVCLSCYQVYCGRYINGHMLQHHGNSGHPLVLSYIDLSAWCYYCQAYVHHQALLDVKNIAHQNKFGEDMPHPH

USP16 ZnF-UBD = USP16 ZnF-UBD (Homo sapiens, UniProt Q9Y5T5); experiment: SPR binding to USP16 ZnF-UBD
Sequence of USP16 ZnF-UBD (Q9Y5T5 25-185): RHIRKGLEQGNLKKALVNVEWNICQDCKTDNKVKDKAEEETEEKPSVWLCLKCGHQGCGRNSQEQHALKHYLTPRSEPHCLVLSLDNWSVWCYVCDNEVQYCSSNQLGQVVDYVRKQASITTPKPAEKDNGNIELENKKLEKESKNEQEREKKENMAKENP

USP49 ZnF-UBD = target: T2, USP49 ZnF-UBD (Homo sapiens, UniProt Q70CQ1); experiment: SPR binding to USP49 ZnF-UBD
T2 sequence (Q70CQ1 1-115): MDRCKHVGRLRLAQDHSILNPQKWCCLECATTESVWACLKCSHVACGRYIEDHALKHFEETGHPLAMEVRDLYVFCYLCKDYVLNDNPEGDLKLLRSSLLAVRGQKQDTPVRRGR

USP3 ZnF-UBD = target: T3, USP3 ZnF-UBD (Homo sapiens, UniProt Q9Y6I4); experiment: SPR binding to USP3 ZnF-UBD
T3 sequence (Q9Y6I4 1-131): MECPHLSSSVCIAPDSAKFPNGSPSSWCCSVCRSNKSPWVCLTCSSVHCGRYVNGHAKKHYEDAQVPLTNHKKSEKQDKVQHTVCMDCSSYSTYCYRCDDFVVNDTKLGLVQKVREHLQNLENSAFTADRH

USP39 ZnF-UBD = target: T4, USP39 ZnF-UBD (Homo sapiens, UniProt Q53GS9); experiment: SPR binding to USP39 ZnF-UBD
T4 sequence (Q53GS9 84-194): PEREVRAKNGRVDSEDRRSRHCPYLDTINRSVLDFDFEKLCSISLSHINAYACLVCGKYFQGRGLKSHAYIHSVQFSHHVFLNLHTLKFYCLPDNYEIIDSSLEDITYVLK

USP20 ZnF-UBD = USP20 ZnF-UBD (Homo sapiens, UniProt Q9Y2K6); experiment: SPR binding to USP20 ZnF-UBD
Sequence of USP20 ZnF-UBD (Q9Y2K6 1-141): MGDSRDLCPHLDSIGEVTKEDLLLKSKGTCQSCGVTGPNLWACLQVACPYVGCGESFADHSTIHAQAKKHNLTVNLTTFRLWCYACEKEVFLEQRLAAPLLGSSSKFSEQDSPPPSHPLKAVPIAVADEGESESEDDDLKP

USP13 ZnF-UBD = target: T5, USP13 ZnF-UBD (Homo sapiens, UniProt Q92995); experiment: SPR binding to USP13 ZnF-UBD
T5 sequence (Q92995 183-307): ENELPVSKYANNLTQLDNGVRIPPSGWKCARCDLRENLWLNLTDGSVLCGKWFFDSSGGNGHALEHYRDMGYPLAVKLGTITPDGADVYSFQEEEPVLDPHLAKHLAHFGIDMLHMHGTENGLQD

USP33 ZnF-UBD = target: T6, USP33 ZnF-UBD (Homo sapiens, UniProt Q8TEY7); experiment: SPR binding to USP33 ZnF-UBD
T6 sequence (Q8TEY7 29-134): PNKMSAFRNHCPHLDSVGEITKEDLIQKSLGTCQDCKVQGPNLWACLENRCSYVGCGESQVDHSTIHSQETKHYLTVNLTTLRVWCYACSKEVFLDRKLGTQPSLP

USP51 ZnF-UBD = target: T7, USP51 ZnF-UBD (Homo sapiens, UniProt Q70EK9); experiment: SPR binding to USP51 ZnF-UBD
T7 sequence (Q70EK9 176-305): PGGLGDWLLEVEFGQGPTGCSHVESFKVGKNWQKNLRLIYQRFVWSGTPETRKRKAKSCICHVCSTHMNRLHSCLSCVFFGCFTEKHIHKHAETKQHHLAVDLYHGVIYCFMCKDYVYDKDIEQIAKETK

USP5 ZnF-UBD = target: T8, USP5 ZnF-UBD (Homo sapiens, UniProt P45974); experiment: SPR binding to USP5 ZnF-UBD
T8 sequence (P45974 171-290): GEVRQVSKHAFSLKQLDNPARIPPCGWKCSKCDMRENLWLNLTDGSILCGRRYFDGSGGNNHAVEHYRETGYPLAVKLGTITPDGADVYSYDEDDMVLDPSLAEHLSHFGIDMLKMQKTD

BRAP ZnF-UBD = target: T9, BRAP ZnF-UBD (Homo sapiens, UniProt Q7Z569); experiment: SPR binding to BRAP ZnF-UBD
T9 sequence (Q7Z569 304-390): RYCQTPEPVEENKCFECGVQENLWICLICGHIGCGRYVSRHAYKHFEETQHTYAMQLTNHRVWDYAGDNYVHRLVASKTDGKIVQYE

E3 ligase CDC20 = conditions: read-out: KD for CDC20; cited from earlier work

KD (µM) HDAC6 (HDAC6 ZnF-UBD): No binding
KD (µM) USP16 (USP16 ZnF-UBD): No binding
KD (µM) USP49 (USP49 ZnF-UBD): No binding
KD (µM) USP3 (USP3 ZnF-UBD): No binding
KD (µM) USP39 (USP39 ZnF-UBD): No binding
KD (µM) USP20 (USP20 ZnF-UBD): No binding
KD (µM) USP13 (USP13 ZnF-UBD): No binding
KD (µM) USP33 (USP33 ZnF-UBD): No binding
KD (µM) USP51 (USP51 ZnF-UBD): No binding
KD (µM) USP5 (USP5 ZnF-UBD): No binding
KD (µM) BRAP (BRAP ZnF-UBD): No binding
Molecule: Ub-RGGdel: C-terminal RGG-deleted Ub construct, negative control in the SPR assay

Molecule: Cc1ncc([N+](=O)[O-])n1CCOC(=O)NC(Nc1ncccn1)C(Cl)(Cl)Cl (stereo not shown) [Apcin]
Kd (E3 ligase CDC20): 10 µM

Kd (USP3 ZnF-UBD; KD (µM) USP3): 191 µM
Molecule: O=C(O)CNc1ncnc2ccccc12 [Compound 25]
